In patent publication US10087225B2, “Formulation of MK2 inhibitor peptides” (MOERAE MATRIX, INC., priority 2015, dated 2018):

How the values were obtained:
Experiment in all cases: Kinase Profiling Assay
Type in all cases: biochemical
Conditions in all cases: for % activity: 100 μM
ErbB4(h) = ErbB4(h) (Homo sapiens, UniProt Q15303)
STK33(h) = STK33(h) (Homo sapiens, UniProt Q9BYT3)
Tie2(Y897S)(h) = Tie2(Y897S)(h) (Homo sapiens, UniProt Q02763, Y897S)
Bmx(h) = biological target: T1, Bmx(h) (Homo sapiens, UniProt P51813)
T1 sequence (P51813 1-675): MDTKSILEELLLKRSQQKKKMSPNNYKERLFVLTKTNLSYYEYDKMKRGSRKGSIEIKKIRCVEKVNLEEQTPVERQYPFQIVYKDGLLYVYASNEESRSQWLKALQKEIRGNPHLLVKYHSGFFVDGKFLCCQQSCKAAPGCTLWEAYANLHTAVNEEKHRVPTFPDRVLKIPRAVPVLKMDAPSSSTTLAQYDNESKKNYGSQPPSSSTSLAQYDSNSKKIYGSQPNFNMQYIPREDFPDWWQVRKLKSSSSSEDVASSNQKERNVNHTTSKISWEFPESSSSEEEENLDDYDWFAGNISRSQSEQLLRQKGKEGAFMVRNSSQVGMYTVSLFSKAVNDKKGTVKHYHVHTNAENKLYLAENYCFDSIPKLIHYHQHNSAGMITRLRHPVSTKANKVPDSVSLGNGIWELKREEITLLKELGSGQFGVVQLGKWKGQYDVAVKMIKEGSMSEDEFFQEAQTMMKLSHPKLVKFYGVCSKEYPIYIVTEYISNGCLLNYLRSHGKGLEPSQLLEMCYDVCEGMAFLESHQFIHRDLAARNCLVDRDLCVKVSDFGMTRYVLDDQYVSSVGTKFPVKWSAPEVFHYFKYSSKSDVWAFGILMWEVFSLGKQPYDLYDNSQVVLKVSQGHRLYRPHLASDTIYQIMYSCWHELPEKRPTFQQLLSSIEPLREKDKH

Fms(h) = Fms(h) (Homo sapiens, UniProt P07333)
EGFR(L858R)(h) = EGFR(L858R)(h) (Homo sapiens, UniProt P00533, L858R)
NEK3(h) = biological target: T2, NEK3(h) (Homo sapiens, UniProt P51956)
T2 sequence (P51956 1-506): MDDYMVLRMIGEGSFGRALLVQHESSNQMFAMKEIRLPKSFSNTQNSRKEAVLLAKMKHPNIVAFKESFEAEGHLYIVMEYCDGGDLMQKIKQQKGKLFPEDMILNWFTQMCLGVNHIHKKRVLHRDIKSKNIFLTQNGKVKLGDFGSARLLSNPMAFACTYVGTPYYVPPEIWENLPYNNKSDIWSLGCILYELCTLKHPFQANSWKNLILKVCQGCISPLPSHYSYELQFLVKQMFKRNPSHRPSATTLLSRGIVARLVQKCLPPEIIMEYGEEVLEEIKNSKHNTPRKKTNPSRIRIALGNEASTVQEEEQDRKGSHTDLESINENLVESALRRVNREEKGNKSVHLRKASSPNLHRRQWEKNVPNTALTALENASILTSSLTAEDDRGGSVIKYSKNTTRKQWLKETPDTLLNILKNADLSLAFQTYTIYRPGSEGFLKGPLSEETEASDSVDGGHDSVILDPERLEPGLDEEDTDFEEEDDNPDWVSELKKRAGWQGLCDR

FGFR1(h) = FGFR1(h) (Homo sapiens, UniProt P11362)
SAPK2a(T106M)(h) = SAPK2a(T106M)(h) (Homo sapiens, UniProt Q16539, T106M)
Mer(h) = biological target: T3, Mer(h) (Homo sapiens, UniProt Q12866)
T3 sequence (Q12866 21-999): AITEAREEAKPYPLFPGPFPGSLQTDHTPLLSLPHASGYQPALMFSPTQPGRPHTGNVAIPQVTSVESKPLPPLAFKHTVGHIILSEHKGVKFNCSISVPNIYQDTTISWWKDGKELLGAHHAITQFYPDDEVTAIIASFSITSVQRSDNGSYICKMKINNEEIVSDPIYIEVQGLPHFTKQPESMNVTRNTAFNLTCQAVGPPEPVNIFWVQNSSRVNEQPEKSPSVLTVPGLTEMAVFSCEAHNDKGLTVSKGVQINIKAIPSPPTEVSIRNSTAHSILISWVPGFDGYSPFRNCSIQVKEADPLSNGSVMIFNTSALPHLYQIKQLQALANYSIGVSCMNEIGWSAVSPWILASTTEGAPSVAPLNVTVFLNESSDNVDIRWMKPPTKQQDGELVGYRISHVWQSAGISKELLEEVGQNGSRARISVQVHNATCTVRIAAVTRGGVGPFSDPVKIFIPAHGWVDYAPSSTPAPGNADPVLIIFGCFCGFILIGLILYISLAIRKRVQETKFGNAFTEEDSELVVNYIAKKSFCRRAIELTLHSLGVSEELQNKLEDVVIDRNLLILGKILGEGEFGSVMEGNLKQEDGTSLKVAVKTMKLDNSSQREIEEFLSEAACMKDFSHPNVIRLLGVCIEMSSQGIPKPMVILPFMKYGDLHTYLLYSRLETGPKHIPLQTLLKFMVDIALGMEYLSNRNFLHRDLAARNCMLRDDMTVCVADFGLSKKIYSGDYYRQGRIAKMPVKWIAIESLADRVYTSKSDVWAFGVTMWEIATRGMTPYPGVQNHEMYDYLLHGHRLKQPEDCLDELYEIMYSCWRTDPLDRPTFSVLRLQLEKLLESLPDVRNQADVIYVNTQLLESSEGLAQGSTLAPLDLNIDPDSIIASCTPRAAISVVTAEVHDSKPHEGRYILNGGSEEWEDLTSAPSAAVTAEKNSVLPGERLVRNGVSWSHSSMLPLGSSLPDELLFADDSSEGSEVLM

Chain of FGFR1(h) (P11362 22-822): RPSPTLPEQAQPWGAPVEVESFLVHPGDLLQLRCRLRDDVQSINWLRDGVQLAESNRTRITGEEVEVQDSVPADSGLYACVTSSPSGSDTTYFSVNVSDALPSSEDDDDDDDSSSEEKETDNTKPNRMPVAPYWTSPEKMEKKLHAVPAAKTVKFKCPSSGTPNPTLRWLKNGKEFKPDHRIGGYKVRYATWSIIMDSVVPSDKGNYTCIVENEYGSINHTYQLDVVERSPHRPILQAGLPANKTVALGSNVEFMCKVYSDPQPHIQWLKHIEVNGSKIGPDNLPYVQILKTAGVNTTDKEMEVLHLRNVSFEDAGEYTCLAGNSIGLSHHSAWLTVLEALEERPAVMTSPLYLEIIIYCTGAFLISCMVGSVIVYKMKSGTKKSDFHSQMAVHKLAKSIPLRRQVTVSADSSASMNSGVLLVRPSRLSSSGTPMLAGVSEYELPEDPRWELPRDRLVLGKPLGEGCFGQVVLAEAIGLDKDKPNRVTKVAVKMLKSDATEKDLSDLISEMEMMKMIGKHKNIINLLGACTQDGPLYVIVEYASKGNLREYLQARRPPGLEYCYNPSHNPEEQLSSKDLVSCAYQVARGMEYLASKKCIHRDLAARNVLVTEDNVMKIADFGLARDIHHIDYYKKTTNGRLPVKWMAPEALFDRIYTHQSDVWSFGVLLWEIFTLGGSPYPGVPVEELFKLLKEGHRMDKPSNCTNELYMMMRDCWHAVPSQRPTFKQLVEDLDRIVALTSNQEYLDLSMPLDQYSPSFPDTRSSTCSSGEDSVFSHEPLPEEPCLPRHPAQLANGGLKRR
Chain of ErbB4(h) (Q15303 26-1308): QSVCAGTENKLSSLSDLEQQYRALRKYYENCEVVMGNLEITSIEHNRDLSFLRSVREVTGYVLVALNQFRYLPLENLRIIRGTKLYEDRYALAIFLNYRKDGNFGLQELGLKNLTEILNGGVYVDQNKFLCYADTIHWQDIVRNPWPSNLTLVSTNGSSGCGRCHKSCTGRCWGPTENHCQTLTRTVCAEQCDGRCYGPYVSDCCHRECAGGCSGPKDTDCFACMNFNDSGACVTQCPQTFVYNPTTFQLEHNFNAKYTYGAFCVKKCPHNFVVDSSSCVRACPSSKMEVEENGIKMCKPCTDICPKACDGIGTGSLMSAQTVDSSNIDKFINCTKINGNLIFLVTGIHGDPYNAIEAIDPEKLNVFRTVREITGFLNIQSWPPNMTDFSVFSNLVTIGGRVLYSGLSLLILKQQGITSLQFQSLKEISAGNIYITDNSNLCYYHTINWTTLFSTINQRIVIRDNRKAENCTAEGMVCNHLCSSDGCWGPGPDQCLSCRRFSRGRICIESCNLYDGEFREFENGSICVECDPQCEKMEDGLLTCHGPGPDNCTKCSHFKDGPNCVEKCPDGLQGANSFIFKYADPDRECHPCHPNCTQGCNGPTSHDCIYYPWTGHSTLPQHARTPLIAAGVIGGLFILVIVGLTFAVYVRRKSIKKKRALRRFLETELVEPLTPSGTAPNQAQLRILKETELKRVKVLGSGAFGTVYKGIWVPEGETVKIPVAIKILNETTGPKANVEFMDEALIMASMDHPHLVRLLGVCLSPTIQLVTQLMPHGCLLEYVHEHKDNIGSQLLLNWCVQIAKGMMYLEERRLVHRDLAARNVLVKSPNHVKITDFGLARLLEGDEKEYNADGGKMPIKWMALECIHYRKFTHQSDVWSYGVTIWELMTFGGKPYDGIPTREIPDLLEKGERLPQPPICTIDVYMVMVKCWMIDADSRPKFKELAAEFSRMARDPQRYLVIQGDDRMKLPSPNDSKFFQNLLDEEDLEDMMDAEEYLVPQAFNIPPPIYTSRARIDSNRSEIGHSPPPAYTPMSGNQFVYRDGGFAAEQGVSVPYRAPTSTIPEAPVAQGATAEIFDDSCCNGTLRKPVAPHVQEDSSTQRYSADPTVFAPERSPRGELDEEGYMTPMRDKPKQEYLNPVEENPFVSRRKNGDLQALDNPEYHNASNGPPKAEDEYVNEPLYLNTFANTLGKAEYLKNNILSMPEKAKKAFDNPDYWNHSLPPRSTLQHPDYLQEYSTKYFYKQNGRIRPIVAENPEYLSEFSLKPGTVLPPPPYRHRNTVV
Chain of Tie2(Y897S)(h) (Q02763 23-1124 Y897S): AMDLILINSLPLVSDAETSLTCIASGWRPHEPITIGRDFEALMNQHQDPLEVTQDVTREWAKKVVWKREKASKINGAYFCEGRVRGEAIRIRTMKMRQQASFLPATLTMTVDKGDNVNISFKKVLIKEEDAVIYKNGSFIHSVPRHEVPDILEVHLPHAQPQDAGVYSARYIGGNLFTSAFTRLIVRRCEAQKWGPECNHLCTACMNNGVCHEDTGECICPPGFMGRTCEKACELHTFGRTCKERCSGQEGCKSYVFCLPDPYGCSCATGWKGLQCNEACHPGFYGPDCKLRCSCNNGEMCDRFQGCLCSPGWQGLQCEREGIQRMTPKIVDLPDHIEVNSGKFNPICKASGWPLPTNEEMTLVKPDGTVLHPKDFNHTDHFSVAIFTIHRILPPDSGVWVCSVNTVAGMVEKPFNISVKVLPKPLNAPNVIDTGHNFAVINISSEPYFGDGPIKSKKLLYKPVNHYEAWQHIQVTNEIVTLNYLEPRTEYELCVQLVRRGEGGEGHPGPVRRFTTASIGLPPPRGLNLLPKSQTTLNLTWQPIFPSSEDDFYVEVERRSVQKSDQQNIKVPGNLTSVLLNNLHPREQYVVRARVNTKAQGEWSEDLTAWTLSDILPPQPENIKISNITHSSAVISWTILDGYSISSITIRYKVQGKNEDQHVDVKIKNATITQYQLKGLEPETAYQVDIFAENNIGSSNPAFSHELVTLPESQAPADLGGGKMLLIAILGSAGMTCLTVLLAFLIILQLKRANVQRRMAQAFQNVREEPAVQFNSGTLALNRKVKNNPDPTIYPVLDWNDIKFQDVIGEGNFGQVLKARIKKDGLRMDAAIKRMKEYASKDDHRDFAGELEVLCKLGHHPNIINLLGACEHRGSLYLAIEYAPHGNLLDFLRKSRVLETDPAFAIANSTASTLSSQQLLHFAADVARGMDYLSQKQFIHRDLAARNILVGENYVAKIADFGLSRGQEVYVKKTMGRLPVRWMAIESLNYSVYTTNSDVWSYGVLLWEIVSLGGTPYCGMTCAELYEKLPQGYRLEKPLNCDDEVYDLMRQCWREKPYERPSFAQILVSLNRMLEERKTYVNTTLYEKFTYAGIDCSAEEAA
Chain of STK33(h) (Q9BYT3 whole entry): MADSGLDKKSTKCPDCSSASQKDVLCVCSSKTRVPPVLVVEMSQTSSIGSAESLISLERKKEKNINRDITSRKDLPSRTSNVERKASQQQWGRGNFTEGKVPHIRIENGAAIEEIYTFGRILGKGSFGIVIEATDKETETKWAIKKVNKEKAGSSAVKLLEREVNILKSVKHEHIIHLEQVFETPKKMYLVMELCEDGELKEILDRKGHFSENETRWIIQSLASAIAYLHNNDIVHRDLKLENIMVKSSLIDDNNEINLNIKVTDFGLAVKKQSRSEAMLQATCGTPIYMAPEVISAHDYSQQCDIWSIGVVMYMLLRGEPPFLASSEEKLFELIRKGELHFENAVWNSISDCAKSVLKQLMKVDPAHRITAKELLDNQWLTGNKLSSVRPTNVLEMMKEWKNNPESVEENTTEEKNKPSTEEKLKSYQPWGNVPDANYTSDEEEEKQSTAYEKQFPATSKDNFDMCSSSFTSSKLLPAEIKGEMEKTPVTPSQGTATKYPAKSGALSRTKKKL
Chain of SAPK2a(T106M)(h) (Q16539 whole entry T106M): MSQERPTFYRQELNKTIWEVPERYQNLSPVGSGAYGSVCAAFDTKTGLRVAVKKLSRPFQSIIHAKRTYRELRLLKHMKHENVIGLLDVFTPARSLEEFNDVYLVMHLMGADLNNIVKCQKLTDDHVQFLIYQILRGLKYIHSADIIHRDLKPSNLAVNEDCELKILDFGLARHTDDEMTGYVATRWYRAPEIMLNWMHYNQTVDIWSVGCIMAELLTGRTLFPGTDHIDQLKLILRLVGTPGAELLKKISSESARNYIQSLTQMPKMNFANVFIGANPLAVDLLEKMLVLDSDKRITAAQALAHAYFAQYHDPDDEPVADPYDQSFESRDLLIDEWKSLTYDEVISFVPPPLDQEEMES

Substance	% activity (ErbB4(h)) [%]	% activity (STK33(h)) [%]	% activity (Tie2(Y897S)(h)) [%]	% activity (Bmx(h)) [%]	% activity (Fms(h)) [%]	% activity (EGFR(L858R)(h)) [%]	% activity (NEK3(h)) [%]	% activity (FGFR1(h)) [%]	% activity (SAPK2a(T106M)(h)) [%]	% activity (Mer(h)) [%]	activity at 100 µM (ErbB4(h)) [%]	activity at 100 µM (STK33(h)) [%]	activity at 100 µM (Tie2(Y897S)(h)) [%]	activity at 100 µM (Bmx(h)) [%]	activity at 100 µM (Fms(h)) [%]	activity at 100 µM (EGFR(L858R)(h)) [%]	activity at 100 µM (NEK3(h)) [%]	activity at 100 µM (FGFR1(h)) [%]	activity at 100 µM (SAPK2a(T106M)(h)) [%]	activity at 100 µM (Mer(h)) [%]
YARAAARQARAKALNRQLGVA (Mammalian) [MMI-0200]	82	98	85	76	92	120	100	97	100	90										
H-YARAAARQARAKALARQLGVAA-OH [MMI-0100]											73	99	99	62	89	76	100	120	101	47
HRRIKAWLKKIKALARQLGVAA (Mammalian) [MMI-0500]	2	16	80	45	14	26	20	18	32	17										
